Tested on: Escherichia coli TOP10
Assay: shrunken log2 fold change of peptide-encoding DNA abundance (4.5 h post-induction vs induction); higher = less antimicrobial activity (less host growth inhibition)
Settings: time post-induction: 4.5 h; library: site-saturation at positions 5, 18, 19, 20
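Also: peptides expressed intracellularly from a pBAD plasmid library in pooled LB shake-flask culture, induced with 0.3% L-arabinose, DNA abundance read by NGS, three biological replicates, DESeq2 with apeglm shrinkage.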

First: RRIRDRPPRLPRPRPRPVYDPRP
Second: RRIRLRPPRLPRPRPRPYFLPRP
The “shrunken log2 fold change” value of the first is higher: -0.434 for the first, -0.798 for the second.

RRIRHRPPRLPRPRPRPFWYPRP and RRIRERPPRLPRPRPRPQSVPRP are within 0.2 log units of each other in “shrunken log2 fold change” value: -0.167 for the first, -0.0488 for the second.

Going from RRIRPRPPRLPRPRPRPRLLPRP to RRIRSRPPRLPRPRPRPEIMPRP, the “shrunken log2 fold change” value falls from 0.321 to 0.0625.

Compared with RRIRDRPPRLPRPRPRPDPQPRP, RRIRERPPRLPRPRPRPCIPPRP is lower in “shrunken log2 fold change” value: 0.209 for the first, -0.109 for the second.

Compared with RRIRLRPPRLPRPRPRPCWEPRP, RRIRKRPPRLPRPRPRPATKPRP is higher in “shrunken log2 fold change” value: -0.197 for the first, 0.253 for the second.

Going from RRIRVRPPRLPRPRPRPEECPRP to RRIRWRPPRLPRPRPRPTRRPRP, the “shrunken log2 fold change” value rises from 0.0155 to 0.377.

First: RRIRRRPPRLPRPRPRPNVWPRP
Second: RRIRVRPPRLPRPRPRPPCAPRP
The “shrunken log2 fold change” value of the first is higher: 1.99 for the first, 0.238 for the second.

Compared with RRIRIRPPRLPRPRPRPMSNPRP, RRIRIRPPRLPRPRPRPNSTPRP is lower in “shrunken log2 fold change” value: 0.115 for the first, -0.722 for the second.

First: RRIRRRPPRLPRPRPRPCRVPRP
Second: RRIRTRPPRLPRPRPRPVTMPRP
The “shrunken log2 fold change” value of the first is higher: 0.0136 for the first, -0.289 for the second.

Compared with RRIRSRPPRLPRPRPRPRFAPRP, RRIRSRPPRLPRPRPRPFYSPRP is lower in “shrunken log2 fold change” value: 0.24 for the first, -0.131 for the second.

First: RRIRMRPPRLPRPRPRPATNPRP
Second: RRIRLRPPRLPRPRPRPRGLPRP
The “shrunken log2 fold change” value of the first is higher: 0.499 for the first, 0.146 for the second.

Going from RRIRARPPRLPRPRPRPRDWPRP to RRIRYRPPRLPRPRPRPRPCPRP, the “shrunken log2 fold change” value falls from 0.577 to -0.117.

Compared with RRIRQRPPRLPRPRPRPKRLPRP, RRIRNRPPRLPRPRPRPFSCPRP is lower in “shrunken log2 fold change” value: 0.281 for the first, -0.03 for the second.

RRIRQRPPRLPRPRPRPYNSPRP and RRIRPRPPRLPRPRPRPHWLPRP are within 0.2 log units of each other in “shrunken log2 fold change” value: -0.198 for the first, -0.0232 for the second.

Compared with RRIRHRPPRLPRPRPRPPEGPRP, RRIRSRPPRLPRPRPRPVMWPRP is higher in “shrunken log2 fold change” value: 0.168 for the first, 0.459 for the second.

First: RRIRRRPPRLPRPRPRPKHGPRP
Second: RRIRNRPPRLPRPRPRPRYKPRP
The “shrunken log2 fold change” value of the first is higher: -0.0664 for the first, -0.566 for the second.

First: RRIRFRPPRLPRPRPRPGVYPRP
Second: RRIRARPPRLPRPRPRPVTRPRP
The “shrunken log2 fold change” value of the first is lower: -0.0669 for the first, 0.35 for the second.

RRIRVRPPRLPRPRPRPCIRPRP and RRIRYRPPRLPRPRPRPATNPRP are within 0.2 log units of each other in “shrunken log2 fold change” value: -0.198 for the first, -0.387 for the second.

RRIRFRPPRLPRPRPRPFWFPRP and RRIRHRPPRLPRPRPRPACYPRP are within 0.2 log units of each other in “shrunken log2 fold change” value: -0.275 for the first, -0.226 for the second.

RRIRHRPPRLPRPRPRPTWFPRP and RRIRGRPPRLPRPRPRPIPTPRP are within 0.2 log units of each other in “shrunken log2 fold change” value: 0.17 for the first, 0.00615 for the second.

Going from RRIRARPPRLPRPRPRPIYLPRP to RRIRIRPPRLPRPRPRPHSQPRP, the “shrunken log2 fold change” value falls from -0.152 to -0.824.

First: RRIRDRPPRLPRPRPRPMLDPRP
Second: RRIRERPPRLPRPRPRPKEIPRP
The “shrunken log2 fold change” value of the first is higher: -0.0254 for the first, -0.357 for the second.

RRIRTRPPRLPRPRPRPSHQPRP and RRIRNRPPRLPRPRPRPGIRPRP are within 0.2 log units of each other in “shrunken log2 fold change” value: 0.185 for the first, 0.0989 for the second.

First: RRIRCRPPRLPRPRPRPSNTPRP
Second: RRIRNRPPRLPRPRPRPEQIPRP
The “shrunken log2 fold change” value of the first is lower: -0.417 for the first, -0.0196 for the second.

Compared with RRIRVRPPRLPRPRPRPQTFPRP, RRIRVRPPRLPRPRPRPHGWPRP is higher in “shrunken log2 fold change” value: -0.122 for the first, 0.492 for the second.

RRIRFRPPRLPRPRPRPKFCPRP and RRIRTRPPRLPRPRPRPFAAPRP are within 0.2 log units of each other in “shrunken log2 fold change” value: 0.00718 for the first, 0.08 for the second.

First: RRIRQRPPRLPRPRPRPSSYPRP
Second: RRIRYRPPRLPRPRPRPPGRPRP
The “shrunken log2 fold change” value of the first is lower: -0.416 for the first, 0.643 for the second.

RRIRYRPPRLPRPRPRPDDYPRP and RRIRNRPPRLPRPRPRPPIVPRP are within 0.2 log units of each other in “shrunken log2 fold change” value: 0.0219 for the first, -0.154 for the second.

First: RRIRTRPPRLPRPRPRPHERPRP
Second: RRIRHRPPRLPRPRPRPVGQPRP
The “shrunken log2 fold change” value of the first is higher: 0.594 for the first, 0.0139 for the second.

Going from RRIRMRPPRLPRPRPRPREAPRP to RRIRCRPPRLPRPRPRPKYHPRP, the “shrunken log2 fold change” value falls from 1.82 to -0.743.

RRIRFRPPRLPRPRPRPMSDPRP and RRIRQRPPRLPRPRPRPRWCPRP are within 0.2 log units of each other in “shrunken log2 fold change” value: -0.103 for the first, -0.0737 for the second.

Going from RRIRYRPPRLPRPRPRPMPQPRP to RRIRQRPPRLPRPRPRPPREPRP, the “shrunken log2 fold change” value rises from -0.318 to 0.655.

RRIRIRPPRLPRPRPRPMWWPRP and RRIRRRPPRLPRPRPRPSDTPRP are within 0.2 log units of each other in “shrunken log2 fold change” value: 0.141 for the first, -0.0536 for the second.

Compared with RRIRVRPPRLPRPRPRPPSWPRP, RRIRCRPPRLPRPRPRPASFPRP is lower in “shrunken log2 fold change” value: 0.34 for the first, -0.176 for the second.

Compared with RRIRLRPPRLPRPRPRPPTGPRP, RRIRYRPPRLPRPRPRPYFWPRP is lower in “shrunken log2 fold change” value: 0.146 for the first, -1.4 for the second.

RRIRNRPPRLPRPRPRPGWDPRP and RRIRVRPPRLPRPRPRPFGMPRP are within 0.2 log units of each other in “shrunken log2 fold change” value: -0.00506 for the first, -0.0877 for the second.

Compared with RRIRVRPPRLPRPRPRPQHYPRP, RRIRIRPPRLPRPRPRPTKTPRP is higher in “shrunken log2 fold change” value: -0.718 for the first, 0.12 for the second.

Going from RRIRGRPPRLPRPRPRPSPMPRP to RRIRDRPPRLPRPRPRPRAFPRP, the “shrunken log2 fold change” value falls from 0.474 to -0.2.

RRIRTRPPRLPRPRPRPDGYPRP and RRIRGRPPRLPRPRPRPMHYPRP are within 0.2 log units of each other in “shrunken log2 fold change” value: -0.0637 for the first, -0.165 for the second.

RRIRKRPPRLPRPRPRPKHHPRP and RRIRIRPPRLPRPRPRPYDNPRP are within 0.2 log units of each other in “shrunken log2 fold change” value: 0.122 for the first, 0.0332 for the second.

Compared with RRIRCRPPRLPRPRPRPYKCPRP, RRIRERPPRLPRPRPRPCMVPRP is lower in “shrunken log2 fold change” value: -0.273 for the first, -1.08 for the second.

Compared with RRIRQRPPRLPRPRPRPVMTPRP, RRIRPRPPRLPRPRPRPRCAPRP is higher in “shrunken log2 fold change” value: -0.172 for the first, 1.73 for the second.

First: RRIRLRPPRLPRPRPRPSCRPRP
Second: RRIRTRPPRLPRPRPRPTTSPRP
The “shrunken log2 fold change” value of the first is lower: -0.116 for the first, 0.0942 for the second.

Compared with RRIRVRPPRLPRPRPRPHNQPRP, RRIRHRPPRLPRPRPRPNYCPRP is higher in “shrunken log2 fold change” value: -0.471 for the first, -0.0948 for the second.

RRIRPRPPRLPRPRPRPGQAPRP and RRIRCRPPRLPRPRPRPKWVPRP are within 0.2 log units of each other in “shrunken log2 fold change” value: -0.0745 for the first, 0.0707 for the second.

RRIRLRPPRLPRPRPRPMEWPRP and RRIRNRPPRLPRPRPRPLEHPRP are within 0.2 log units of each other in “shrunken log2 fold change” value: -0.0102 for the first, -0.0225 for the second.

RRIRCRPPRLPRPRPRPHYAPRP and RRIRVRPPRLPRPRPRPEYQPRP are within 0.2 log units of each other in “shrunken log2 fold change” value: -0.299 for the first, -0.235 for the second.

RRIRWRPPRLPRPRPRPSLVPRP and RRIRHRPPRLPRPRPRPGWIPRP are within 0.2 log units of each other in “shrunken log2 fold change” value: -0.0104 for the first, -0.051 for the second.

RRIRNRPPRLPRPRPRPLNLPRP and RRIRFRPPRLPRPRPRPGYEPRP are within 0.2 log units of each other in “shrunken log2 fold change” value: -0.25 for the first, -0.16 for the second.

Compared with RRIRCRPPRLPRPRPRPQYNPRP, RRIRHRPPRLPRPRPRPEGMPRP is higher in “shrunken log2 fold change” value: -1.36 for the first, -0.0777 for the second.

Going from RRIRIRPPRLPRPRPRPFKFPRP to RRIRERPPRLPRPRPRPYGMPRP, the “shrunken log2 fold change” value rises from -0.702 to -0.207.

First: RRIRMRPPRLPRPRPRPVTPPRP
Second: RRIRCRPPRLPRPRPRPDIGPRP
The “shrunken log2 fold change” value of the first is higher: 0.614 for the first, -0.293 for the second.

First: RRIRYRPPRLPRPRPRPYPSPRP
Second: RRIRPRPPRLPRPRPRPPWHPRP
The “shrunken log2 fold change” value of the first is lower: -0.248 for the first, 0.196 for the second.

Compared with RRIRERPPRLPRPRPRPETKPRP, RRIRFRPPRLPRPRPRPWPRPRP is higher in “shrunken log2 fold change” value: -0.231 for the first, 0.626 for the second.

First: RRIRIRPPRLPRPRPRPKYFPRP
Second: RRIRDRPPRLPRPRPRPYNFPRP
The “shrunken log2 fold change” value of the first is lower: -0.288 for the first, -0.0811 for the second.

First: RRIRARPPRLPRPRPRPWRYPRP
Second: RRIRRRPPRLPRPRPRPDDCPRP
The “shrunken log2 fold change” value of the first is lower: -0.163 for the first, 0.279 for the second.

First: RRIRSRPPRLPRPRPRPMFQPRP
Second: RRIRNRPPRLPRPRPRPRVIPRP
The “shrunken log2 fold change” value of the first is higher: 0.0483 for the first, -0.21 for the second.

Compared with RRIRWRPPRLPRPRPRPACGPRP, RRIRSRPPRLPRPRPRPCGKPRP is lower in “shrunken log2 fold change” value: 0.508 for the first, 0.027 for the second.

RRIRSRPPRLPRPRPRPKKWPRP and RRIRRRPPRLPRPRPRPFLYPRP are within 0.2 log units of each other in “shrunken log2 fold change” value: 0.0341 for the first, 0.0538 for the second.

First: RRIRRRPPRLPRPRPRPRCWPRP
Second: RRIRIRPPRLPRPRPRPLWPPRP
The “shrunken log2 fold change” value of the first is higher: 0.486 for the first, -0.0906 for the second.

First: RRIRSRPPRLPRPRPRPPAGPRP
Second: RRIRMRPPRLPRPRPRPYWAPRP
The “shrunken log2 fold change” value of the first is higher: 0.704 for the first, -0.0573 for the second.

Going from RRIRARPPRLPRPRPRPEDWPRP to RRIRVRPPRLPRPRPRPQCWPRP, the “shrunken log2 fold change” value falls from 1.63 to 0.198.

With RRIRYRPPRLPRPRPRPVACPRP the “shrunken log2 fold change” value was -0.187.

Reference: the supplement of paper PMC9112550, “Optimization of the antimicrobial peptide Bac7 by deep mutational scanning” (BMC Biology, 2022)
